From article doi:10.1101/2023.08.04.551977 (bioRxiv, 2023)
Read-outs that look alike come from different tables or passages of the source. Blank lines part the entries; values can stand above or below the molecule they belong to.

How the values were obtained:
Wild-type menin (human) [1] = molecular target: Wild-type menin (human) (UniProt O00255); experiment: MST
Wild-type menin (human) [2] = molecular target: Wild-type menin (human) (UniProt O00255); experiment: MST; remark: listed apart in the source
menin-MLL complex = menin-MLL complex (UniProt O00255); experiment: MST
menin Δ460-519 (human) = menin Δ460-519 (human) (UniProt O00255); experiment: MST
[3] = molecular target: menin Δ460-519/ 586-615 (human) (UniProt O00255); experiment: MST
[4] = molecular target: His-sumo-AR MBR (aa. G473-T560); experiment: BLI
dynamic light scattering = molecular target: the molecule itself; experiment: dynamic light scattering
MST = molecular target: the molecule itself; experiment: MST
Wild-type menin (human) [5] = molecular target: Wild-type menin (human) (UniProt O00255); experiment: SEC
His-sumo-AR MBR A = His-sumo-AR MBR A (UniProt P10275); experiment: BLI
His-sumo-AR MBR B = His-sumo-AR MBR B (UniProt P10275); experiment: BLI
[6] = molecular target: His-sumo-AR MBR (aa. G473-T560); experiment: BLI; remark: listed apart in the source
Wild-type menin (human) [7] = molecular target: Wild-type menin (human) (UniProt O00255); experiment: dynamic light scattering
HPLC-SAXS = molecular target: the molecule itself; experiment: HPLC-SAXS
AR MBR (aa. G473-T560) = experiment: NMR titration
AR-v7 = molecular target: T1, AR-v7 (UniProt P10275-3 1-644); experiment: MST
T1 sequence: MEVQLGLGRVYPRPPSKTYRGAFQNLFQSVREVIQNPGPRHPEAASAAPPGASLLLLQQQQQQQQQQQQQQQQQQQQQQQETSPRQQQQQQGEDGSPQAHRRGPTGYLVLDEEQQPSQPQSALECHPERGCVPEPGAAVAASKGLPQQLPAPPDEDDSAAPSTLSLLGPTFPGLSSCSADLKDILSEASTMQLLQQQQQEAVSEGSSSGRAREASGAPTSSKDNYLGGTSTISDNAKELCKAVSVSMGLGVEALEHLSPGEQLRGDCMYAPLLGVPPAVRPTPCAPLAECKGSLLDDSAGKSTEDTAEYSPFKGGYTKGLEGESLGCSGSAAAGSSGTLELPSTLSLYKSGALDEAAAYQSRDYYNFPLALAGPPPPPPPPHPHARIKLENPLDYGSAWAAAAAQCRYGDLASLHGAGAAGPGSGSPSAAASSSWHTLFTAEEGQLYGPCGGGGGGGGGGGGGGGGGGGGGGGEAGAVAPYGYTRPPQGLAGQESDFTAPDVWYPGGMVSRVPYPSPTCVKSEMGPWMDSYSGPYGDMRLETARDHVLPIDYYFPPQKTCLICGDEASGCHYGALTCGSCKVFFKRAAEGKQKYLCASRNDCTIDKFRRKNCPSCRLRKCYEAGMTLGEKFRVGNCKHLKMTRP

Kd (Wild-type menin (human) [1]): 1000 µM
Molecule: His-sumo-AR MBR A (from UniProt P10275 473-518) (domain or fragment)

Kd (Wild-type menin (human) [1]): 24 µM
Molecule: His-sumo-AR MBR B (from UniProt P10275 509-559) (domain or fragment)

Kd (Wild-type menin (human) [2]): 9.8 µM
Kd (menin-MLL complex): 10.8 µM
Kd (menin Δ460-519 (human)): 6.3 µM
Kd [3]: 2 µM
Kd (Wild-type menin (human) [1]): 1.7 µM
Molecule: His-sumo-AR MBR (aa. G473-T560) (domain or fragment)

Kd [4]: 10.5 µM
Molecule: menin-MLL complex (from UniProt O00255;Q03164)

B1: AR MBR-DBD-LBD (domain or fragment)
chain: GEAGAVAPYGYTRPPQGLAGQESDFTAPDVWYPGGMVSRVPYPSPTCVKSEMGPWMDSYSGPYGDMRLETARDHVLPIDYYFPPQKTCLICGDEASGCHYGALTCGSCKVFFKRAAEGKQKYLCASRNDCTIDKFRRKNCPSCRLRKCYEAGMTLGARKLKKLGNLKLQEEGEASSTTSPTEETTQKLTVSHIEGYECQPIFLNVLEAIEPGVVCAGHDNNQPDSFAALLSSLNELGERQLVHVVKWAKALPGFRNLHVDDQMAVIQYSWMGLMVFAMGWRSFTNVNSRMLYFAPDLVFNEYRMHKSRMYSQCVRMRHLSQEFGWLQITPQEFLCMKALLLFSIIPVDGLKNQKFFDELRMNYIKELDRIIACKRKNPTSCSRRFYQLTKLLDSVQPIARELHQFTFDLLIKSHMVSVDFPEMMAEIISVQVPKILSGKVKPIYFHTQ
stoichiometry N (dynamic light scattering): 2

B2: menin Δ460-519/ 586-615 (natural protein)
chain: MGLKAAQKTLFPLRSIDDVVRLFAAELGREEPDLVLLSLVLGFVEHFLAVNRVIPTNVPELTFQPSPAPDPPGGLTYFPVADLSIIAALYARFTAQIRGAVDLSLYPREGGVSSRELVKKVSDVIWNSLSRSYFKDRAHIQSLFSFITGTKLDSSGVAFAVVGACQALGLRDVHLALSEDHAWVVFGPNGEQTAEVTWHGKGNEDRRGQTVNAGVAERSWLYLKGSYMRCDRKMEVAFMVCAINPSIDLHTDSLELLQLQQKLLWLLYDLGHLERYPMALGNLADLEELEPTPGRPDPLTLYHKGIASAKTYYRDEHIYPYMYLAGYHCRNRNVREALQAWADTATVIQDYNYCREDEEIYKEFFEVANDVIPNLLKEAASLLEAGEERPGEQSQGTQSQGSALQDPECFAHLLRFYDGICKWEEGSPTPVLHVGWATFLVQSLGRFEGQVRQKVRIVSGTVAGTARGPEGGSTAQVPAPTASPPPEGPVLTFQSEKMKGMKELLVATKINSSAIKLQLTAQSQV
modifications: RED-NHS 2nd generation dye label on the labelled partner in the MST experiments
Kd (MST): 3.2 ± 0.8 µM

stoichiometry N (Wild-type menin (human) [5]): 2
Kd (His-sumo-AR MBR A): 3000 µM
Kd (His-sumo-AR MBR B): 47 µM
Kd [6]: 10.5 µM
stoichiometry N (Wild-type menin (human) [7]): 2
Kd (Wild-type menin (human) [1]): 10.4 µM
B3: Wild-type menin (natural protein)
chain: MGLKAAQKTLFPLRSIDDVVRLFAAELGREEPDLVLLSLVLGFVEHFLAVNRVIPTNVPELTFQPSPAPDPPGGLTYFPVADLSIIAALYARFTAQIRGAVDLSLYPREGGVSSRELVKKVSDVIWNSLSRSYFKDRAHIQSLFSFITGTKLDSSGVAFAVVGACQALGLRDVHLALSEDHAWVVFGPNGEQTAEVTWHGKGNEDRRGQTVNAGVAERSWLYLKGSYMRCDRKMEVAFMVCAINPSIDLHTDSLELLQLQQKLLWLLYDLGHLERYPMALGNLADLEELEPTPGRPDPLTLYHKGIASAKTYYRDEHIYPYMYLAGYHCRNRNVREALQAWADTATVIQDYNYCREDEEIYKEFFEVANDVIPNLLKEAASLLEAGEERPGEQSQGTQSQGSALQDPECFAHLLRFYDGICKWEEGSPTPVLHVGWATFLVQSLGRFEGQVRQKVRIVSREAEAAEAEEPWGEEAREGRRRGPRRESKPEEPPPPKKPALDKGLGTGQGAVSGPPRKPPGTVAGTARGPEGGSTAQVPAPTASPPPEGPVLTFQSEKMKGMKELLVATKINSSAIKLQLTAQSQVQMKKQKVSTPSDYTLSFLKRQRKGL
modifications: RED-NHS 2nd generation dye label on the labelled partner in the MST experiments

Kd (AR MBR (aa. G473-T560)): 15.7 µM
Kd (AR-v7): 1.7 ± 1.8 µM
B4: menin Δ460-519 (natural protein)
chain: MGLKAAQKTLFPLRSIDDVVRLFAAELGREEPDLVLLSLVLGFVEHFLAVNRVIPTNVPELTFQPSPAPDPPGGLTYFPVADLSIIAALYARFTAQIRGAVDLSLYPREGGVSSRELVKKVSDVIWNSLSRSYFKDRAHIQSLFSFITGTKLDSSGVAFAVVGACQALGLRDVHLALSEDHAWVVFGPNGEQTAEVTWHGKGNEDRRGQTVNAGVAERSWLYLKGSYMRCDRKMEVAFMVCAINPSIDLHTDSLELLQLQQKLLWLLYDLGHLERYPMALGNLADLEELEPTPGRPDPLTLYHKGIASAKTYYRDEHIYPYMYLAGYHCRNRNVREALQAWADTATVIQDYNYCREDEEIYKEFFEVANDVIPNLLKEAASLLEAGEERPGEQSQGTQSQGSALQDPECFAHLLRFYDGICKWEEGSPTPVLHVGWATFLVQSLGRFEGQVRQKVRIVSGTVAGTARGPEGGSTAQVPAPTASPPPEGPVLTFQSEKMKGMKELLVATKINSSAIKLQLTAQSQVQMKKQKVSTPSDYTLSFLKRQRKGL
modifications: RED-NHS 2nd generation dye label on the labelled partner in the MST experiments
stoichiometry N (HPLC-SAXS): 2
Kd (MST): 1.9 ± 0.9 µM
